Reference: US20240133890A1

Target: WSTF (BAZ1B) (UniProt Q9UIG0)
UniProt Q9UIG0, sequence (Q9UIG0 whole entry): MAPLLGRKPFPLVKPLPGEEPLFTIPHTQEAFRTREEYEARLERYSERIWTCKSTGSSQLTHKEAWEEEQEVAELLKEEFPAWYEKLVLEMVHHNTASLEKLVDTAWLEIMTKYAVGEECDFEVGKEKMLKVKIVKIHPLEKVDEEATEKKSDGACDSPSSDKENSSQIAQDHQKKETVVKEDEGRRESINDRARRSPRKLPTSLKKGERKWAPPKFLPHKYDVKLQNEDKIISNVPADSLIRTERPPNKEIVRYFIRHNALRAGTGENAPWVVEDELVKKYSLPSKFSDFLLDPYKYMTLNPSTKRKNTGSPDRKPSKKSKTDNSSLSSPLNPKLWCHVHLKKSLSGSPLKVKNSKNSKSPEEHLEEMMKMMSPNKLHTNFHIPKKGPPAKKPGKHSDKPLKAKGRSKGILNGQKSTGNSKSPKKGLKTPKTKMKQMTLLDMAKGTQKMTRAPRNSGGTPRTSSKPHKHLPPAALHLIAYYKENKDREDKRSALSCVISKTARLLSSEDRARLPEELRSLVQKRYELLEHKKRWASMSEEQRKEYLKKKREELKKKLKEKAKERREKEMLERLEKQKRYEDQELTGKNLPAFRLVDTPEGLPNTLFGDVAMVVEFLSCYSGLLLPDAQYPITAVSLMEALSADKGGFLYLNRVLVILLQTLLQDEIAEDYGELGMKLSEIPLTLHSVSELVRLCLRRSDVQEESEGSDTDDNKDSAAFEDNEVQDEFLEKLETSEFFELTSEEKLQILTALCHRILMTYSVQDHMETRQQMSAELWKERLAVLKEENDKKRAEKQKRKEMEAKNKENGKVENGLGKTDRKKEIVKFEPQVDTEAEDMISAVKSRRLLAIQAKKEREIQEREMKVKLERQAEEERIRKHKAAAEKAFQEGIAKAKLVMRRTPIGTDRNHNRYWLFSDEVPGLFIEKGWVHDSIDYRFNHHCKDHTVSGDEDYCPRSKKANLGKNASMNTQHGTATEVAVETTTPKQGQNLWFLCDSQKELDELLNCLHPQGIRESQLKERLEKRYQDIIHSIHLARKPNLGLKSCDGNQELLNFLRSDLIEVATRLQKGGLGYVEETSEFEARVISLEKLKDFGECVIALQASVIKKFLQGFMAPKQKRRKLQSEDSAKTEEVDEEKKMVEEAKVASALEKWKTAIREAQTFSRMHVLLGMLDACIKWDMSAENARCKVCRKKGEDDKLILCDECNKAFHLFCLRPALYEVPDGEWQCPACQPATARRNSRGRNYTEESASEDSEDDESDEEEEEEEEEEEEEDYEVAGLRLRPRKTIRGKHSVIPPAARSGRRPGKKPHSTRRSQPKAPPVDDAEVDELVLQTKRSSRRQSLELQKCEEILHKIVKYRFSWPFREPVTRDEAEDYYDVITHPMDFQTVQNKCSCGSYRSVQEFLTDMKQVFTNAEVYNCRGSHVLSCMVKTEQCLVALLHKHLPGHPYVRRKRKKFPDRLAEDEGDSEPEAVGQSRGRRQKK

## JMJD6
  level of WSTF hydroxylation (Western blot with Ab1, MCF-7 nucleoprotein): after JMJD6 knockdown or mutation, the level of WSTF hydroxylation was significantly reduced
